Reference: article PMC8508685, “The Ephb2 Receptor Uses Homotypic, Head-to-Tail Interactions within Its Ectodomain as an Autoinhibitory Control Mechanism” (International Journal of Molecular Sciences, 2021)

Key:
[1] = target: human EphB2 full-length N482Q (human) (UniProt P29323)
[2] = target: human EphB2 full-length Q472A/Y473A/E480A/Y481A (human) (UniProt P29323)
[3] = target: human EphB2 full-length Y481E (human) (UniProt P29323)
[4] = target: the molecule itself; assay: crystal structure; unliganded EphB2-ECD at 10 mg/mL in HBS, hanging drop at room temperature, 1.1 M Na Succinate, 0.1 M Na Acetate pH 4.8, 5% MPD, 3% 1,6-Hexanediol; 3.1 Å; head-to-tail contact between neighbouring molecules in the crystal

“human EphB2 full-length N482Q (from UniProt P29323 19-1055) (receptor)” gave an EphB2 phosphorylation in HEK293 cells after ephrin stimulation (anti-phosphotyrosine IP, anti-EphB2 blot), band intensity compared with the wild-type receptor (% higher than wild type) [1] of 40.

With “human EphB2 full-length Q472A/Y473A/E480A/Y481A (from UniProt P29323 19-1055) (receptor)” the EphB2 phosphorylation in HEK293 cells after ephrin stimulation (anti-phosphotyrosine IP, anti-EphB2 blot), band intensity compared with the wild-type receptor (% higher than wild type) [2] was 46.

“human EphB2 full-length Y481E (from UniProt P29323 19-1055) (receptor)” gave an EphB2 kinase domain phosphorylation in HEK293 cells (anti-phosphotyrosine IP, anti-EphB2 blot), compared with the wild-type receptor (% lower than wild type) [3] of 56.

B1: mouse EphB2 extracellular domain (ECD) (residues 19-543) (domain or fragment, UniProt P54763 19-543, looked up)
chain: VEETLMDSTTATAELGWMVHPPSGWEEVSGYDENMNTIRTYQVCNVFESSQNNWLRTKFIRRRGAHRIHVEMKFSVRDCSSIPSVPGSCKETFNLYYYEADFDLATKTFPNWMENPWVKVDTIAADESFSQVDLGGRVMKINTEVRSFGPVSRNGFYLAFQDYGGCMSLIAVRVFYRKCPRIIQNGAIFQETLSGAESTSLVAARGSCIANAEEVDVPIKLYCNGDGEWLVPIGRCMCKAGFEAVENGTVCRGCPSGTFKANQGDEACTHCPINSRTTSEGATNCVCRNGYYRADLDPLDMPCTTIPSAPQAVISSVNETSLMLEWTPPRDSGGREDLVYNIICKSCGSGRGACTRCGDNVQYAPRQLGLTEPRIYISDLLAHTQYTFEIQAVNGVTDQSPFSPQFASVNITTNQAAPSAVSIMHQVSRTVDSITLSWSQPDQPNGVILDYELQYYEKELSEYNATAIKSPTNTVTVQGLKAGAIYVFQVRARTVAGYGRYSGKMYFQTMTEAEYQTSIKEKLPL
modifications: glycosylated at N265, N336, N428 and N482
notes: EphB2 (ephrin type-B receptor 2), mouse, extracellular domain (LBD, CRD, FN1, FN2), residues 19-543; also called EphB2-ECD; EphB2 ECD; not shown: Fc (human), C-terminal, cleaved
B1: binds [4].
